“Also recorded” adds a separate entry of the source.

A short description of experiment [1]: Example 2: promotion of re-epithelialization. The class given is in vivo. The note with it: end point: establishment of a biological barrier or Superficial Punctate Keratitis. From the text: (§1) Compositions can also be administered in effective amounts to promote re-epithelialization, reduce the occurrence and/or severity of ulcers and preserve nerve function (appropriate signal potentiation) and/or integrity (physical state of the nerve itself). Objective measures for re-epithelialization include, without limitation, slit lamp microscopy with fluorescence staining. Objective measures for reduction and/or severity of ulcers include, without limitation, slit lamp microscopy for surface (ir)regularity. Objective measures for preservation of nerve function include corneal sensitivity measures. Objective measures for preservation of nerve integrity include in vitro confocal microscopy to determine the nerve fiber health (length, diameters and branches.)
(§2) A number of experiments are conducted to further define the role of up-regulation of TGFβ1, TGFβ2, TGFβ3, Serpine 1, fibronectin, lumican, epidermal growth factor ligands, activin and Nodal as well as the down-regulation of sEH/Ephx2 in the promotion of wound healing, promotion of re-epithelialization, reduction of the occurrence and/or severity of ulcers, preservation of nerve function and/or integrity, promotion of eye health and maintenance of vision. In the experiments, each experiment having relevant control conditions, each of the listed compounds is administered as part of a therapeutic composition (including as a direct therapeutic and/or as part of a genetic therapy as described herein).

Experiment [2] can be described thus: Example 2: occurrence and/or severity of ulcers. The note with it: end point: slit lamp microscopy for surface (ir)regularity. The class given is in vivo.
Description: as §1, §2

A further experiment relates to GK rat corneas. Description: Epithelial wound closure in GK rat corneas after subconjunctival recombinant TGFβ3. The class given is in vivo. The note with it: GK rats, 40 ng in 20 μl subconjunctival 4 hours prior to debridement, 5-mm wound, 42 h, vs PBS. As to the method:
(§3) FIGS. 6A-6C. Effects of TGFβ3 on epithelial wound closure in GK rat corneas. (FIG. 6A) A total of 40 ng recombinant TGFβ3, with PBS as the control, was injected into subconjunctival space at two sites (10 μl each) of GK rats 4 hours prior to wounding. Corneal epithelial wound of 5-mm diameter was made and allowed to heal for 42 h and then fluorescence stained, and photographed. (FIG. 6B) Changes in the mean of the remaining wound areas in pixels were calculated by Adobe Photoshop software with p value listed, n=5. (FIG. 6C). CECs collected during wounding (Con) and 42 hpw in PBS and TGFβ3 treated corneas were extracted and subjected to Western blotting with listed antibodies; two samples out of 5 from post wounding corneas were shown with actin as the internal control. The anti-TGFβ1-3 antibodies recognized both latent (44, 25, 47 kDa, respectively) and active (15, 12, 15 kDa, respectively) forms, giving two bands in Western blotting. These figures are representatives of 5 corneas per condition from 2 independent experiments; ** p<0.01.
Corneal Epithelial Debridement Wound. […]
Exogenous TGFβ3 accelerates delayed epithelial wound closure in DM corneas. Whether exogenously-added TGFβ3 in DM corneas accelerates delayed epithelial wound closure in GK and STZ B6 mice was assessed next. […]

Experiment [3] relates to Smad2/3, TGFβ1, TGFβ2, TGFβ3 in WH CECs. In words: Western blotting of CECs of TGFβ3 treated GK rat corneas. The class given is in vivo. The note with it: GK rats. As to the method:
as §3
Determination of Protein Expression and Phosphorylation by Western Blot Analysis. The epithelial cells removed during corneal debridement (the control) and post-wound, but prior to wound closure, were collected from NL and DM rat corneas and lysed with radioimmunoprecipitation assay (RIPA) buffer. Protein concentrations were determined using Micro BCA kits. Levels of various proteins or their phosphorylation were determined using specific antibodies. For each condition, two samples were shown with β-actin levels as the internal controls.
Exogenous TGFβ3 accelerates delayed epithelial wound closure in DM corneas. Whether exogenously-added TGFβ3 in DM corneas accelerates delayed epithelial wound closure in GK and STZ B6 mice was assessed next. […] To assess if exogenously added TGFβ3 affects the isoform expression, antibodies against TGFβ1-3 were used for Western blotting. […] While some elevated active TGFβ3 molecules could be from exogenously added TGFβ3 (15 kDa), the latent form (47 kDa) can only be from endogenous sources, indicating an auto-regulation of TGFβ3 expression in rat corneas.
(In general: In western blotting, separated proteins are transferred to a membrane and probed.)

The subject of another experiment is STZ B6 mouse corneas. In words: Epithelial wound closure in STZ B6 mouse corneas after subconjunctival recombinant TGFβ3. The class given is in vivo. The note with it: STZ B6 mice, 14 ng subconjunctival 4 hours prior to wounding, 2 mm wound, 16 and 24 hpw, vs PBS. As to the method:
(§4) FIGS. 7A-7C. Effects of TGFβ3 on epithelial wound closure in B6 and STZ B6 mouse corneas. […] A 2 mm epithelial wound was made and allowed to heal for 16 h in B6 mice and 24 h in STZ B6 mice, and then fluorescence stained, and photographed. 1) NL cornea injected with PBS, 2) NL corneal injected with TGFβ3, 3) DM (STZ) cornea injected with PBS, 4) DM corneal injected with TGFβ3. (FIG. 7B) Changes in the mean of the remaining wound areas in pixels were calculated by Adobe Photoshop software with p value listed, n=5. (FIG. 7C). CECs collected during wounding (first 2 lanes) and 16 hpw (1, 2) or 24 hpw (3, 4) in PBS (1, 3) and TGFβ3 (2, 4) treated corneas were extracted and subjected to realtime-PCR analysis for Serpine 1 expression, N=3, **p<0.01.
Corneal Epithelial Debridement Wound. Anesthetized rats and mice were first demarcated with a trephine in the central cornea (5-mm circular wound for rats and 2 mm for mice) and CECs were removed with a blunt scalpel blade under a dissecting microscope (4; 6; 7). The blade with scraped CECs was immediately immersed into liquid nitrogen and the visible ice was collected into a test tube, placed on dry ice and stored at −80° C. The sample was marked as unwounded (UW). Bacitracin ophthalmic ointment was applied to the cornea after surgery to prevent infection. […]

In another experiment the test system is Serpine 1. In words: Realtime-PCR for Serpine 1 expression in CECs of TGFβ3 treated mouse corneas. The class given is in vivo. The note with it: NL and DM mice, 16 or 24 hpw. On the procedure: as §4
RNA Extraction and Real-time PCR. For RNA isolation, CECs were scraped off of corneas, with 2 corneas pooled into 1 tube as one sample. RNA was extracted from the collected CECs using RNeasy Mini Kit (QIAGEN). cDNA was generated with an oligo(dT) primer (Invitrogen) followed by analysis using real-time PCR with the Power SYBR Green PCR Master Mix (AB Applied Biosystems), based on the expression of β-actin.

The subject of experiment [4] is corneas of type 1 DM rats and mice and type 2 DM rats. Description: Epithelial wound healing in DM corneas of three rodent models (summary statements). In kind it is in vivo. The note with it: exogenous TGFβ3. From the text: The described genome-wide cDNA microarrays were used to compare the gene expression profiles of WH versus UW and DM versus NL CECs. […] Without being bound to a single theory, the effects of TGFβs on epithelial wound closure are related to its ability to activate Smad-dependent and -independent pathways, to modulate its own expression, and to mediate target gene expression.
The altered expression of TGFβ3 was also confirmed in cultured human corneas post wound healing, indicating the relevance of the study. […] While the mechanisms underlying hyperglycemia-suppressed wound-induced TGFβ3 expression is unclear, early inhibitory effects of hyperglycemia on TGFβ3 expression, which differs from that of TGFβ1 (42), may exacerbate the suppression of TGFβ3 up-regulation in response to wounding.

In another experiment the test system is adult skin wounds. The note with it: failure due to increased angiogenesis in post-surgery skin; cited from earlier work.

Regarding Activin, the “Treatment Outcome: Promotes re-epithelialization” value in experiment [1] is “Promotes”. In experiment [2], the “Treatment Outcome: Reduces occurrence and/or severity of ulcers” value was “Reduces occurrence”.
With “TGβ1: TGFβ isoform 1 administered as part of a therapeutic composition”, in experiment [1], the “Treatment Outcome: Promotes re-epithelialization” value was “Promotes”. The “Treatment Outcome: Reduces occurrence and/or severity of ulcers” value in experiment [2] was “Reduces occurrence”.

B1: TGFβ3: recombinant Transforming Growth Factor beta 3 isoform, injected subconjunctivally (protein)
chain: ALDTNYCFRNLEENCCVRPLYIDFRQDLGWKWVHEPKGYYANFCSGPCPYLRSSDTTHSTVLGLYNTLNPEASASPCCVPQDLEPLTILYYVGRTPKVEQLSNMVVKSCKCS
Regarding B1, in the experiment on GK rat corneas, the “rate of wound closure” value is “substantially increasing”. Also, in experiment [3] (42 hpw), the “Smad2/3 phosphorylation in WH CECs” value was “enhancing”. The “TGFβ3 expression (latent form, endogenous)” value in experiment [3] (WH CECs) is listed as “increased”. In experiment [3] (WH DM CECs), the TGFβ1 expression result is recorded as “no effects”. Moreover, the “levels of TGFβ2” value in experiment [3] (all samples) is “low and unchanged”. In addition, the “rate of epithelial closure” value with STZ B6 mouse corneas is listed as “significantly increased”. Moreover, the “Serpine 1 mRNA levels” value in the experiment on Serpine 1 is reported as “correlated to the levels of TGFβ3 activity”. For the same molecule, the “epithelial wound healing in DM corneas” value in experiment [4] is listed as “promotes epithelial wound healing; also recorded: partially restores the healing rate”. Also, the “Treatment Outcome: Promotes re-epithelialization” value in experiment [1] is recorded as “Promotes”. The “Treatment Outcome: Reduces occurrence and/or severity of ulcers” value in experiment [2] is given as “Reduces occurrence”. Moreover, the “outcome of phase 3 clinical trials as anti-scarring agent” value in the experiment on adult skin wounds was “considered a failure”.

B2: TGβ2: TGFβ isoform 2 administered as part of a therapeutic composition (protein)
chain: ALDAAYCFRNVQDNCCLRPLYIDFKRDLGWKWIHEPKGYNANFCAGACPYLWSSDTQHTKVLSLYNTINPEASASPCCVSQDLEPLTILYYIGNTPKIEQLSNMIVKSCKCS
Take B2: the “Treatment Outcome: Promotes re-epithelialization” value in experiment [1] is on record as “Promotes”. Also, the “Treatment Outcome: Reduces occurrence and/or severity of ulcers” value in experiment [2] is “Reduces occurrence”.

B3: Nodal: composition that up-regulates SMAD-signaling (protein, UniProt Q96S42 238-347, looked up)
Nodal homolog: HHLPDRSQLCRKVKFQVDFNLIGWGSWIIYPKQYNAYRCEGECPNPVGEEFHPTNHAYIQSLLKRYQPHRVPSTCCAPVKTKPLSMLYVDNGRVLLDHHKDMIVEECGCL
Take B3: in experiment [1], the “Treatment Outcome: Promotes re-epithelialization” value was “Promotes”. For the same molecule, the “Treatment Outcome: Reduces occurrence and/or severity of ulcers” value in experiment [2] was “Reduces occurrence”.
